Compound in series [1]: CCN(CC)Cc1ccccc1CNC(=O)c1cc(C)cc(NC(=O)c2ccc(F)cc2)c1
Briefly: Non competitive inhibition of human BChE assessed as Km at 0.02 nM using BTC as substrate by Lineweaver-Burk plot analysis.

Compound in series [2]: CCN(CC)Cc1ccccc1CNC(=O)c1cc(C)cc(NC(=O)c2ccc(F)cc2)c1
Briefly: Non competitive inhibition of human BChE assessed as Km at 0.12 nM using BTC as substrate by Lineweaver-Burk plot analysis.

Compound in series [3]: CCN(CC)Cc1ccccc1CNC(=O)c1cc(C)cc(NC(=O)c2ccc(F)cc2)c1
The experiment in a line: Non competitive inhibition of human BChE assessed as Vmax at 0.12 nM using BTC as substrate by Lineweaver-Burk plot analysis.

Compound in series [4]: CCN(CC)Cc1ccccc1CNC(=O)c1cc(C)cc(NC(=O)c2ccc(F)cc2)c1
The experiment in a line: Non competitive inhibition of human BChE assessed as Km at 0.15 nM using BTC as substrate by Lineweaver-Burk plot analysis.

Compound in series [5]: CCN(CC)Cc1ccccc1CNC(=O)c1cccc(NC(=O)c2ccc(F)cc2)c1
The experiment in a line: Mixed type inhibition of human BChE assessed as Km at 1 nM using BTC as substrate by Lineweaver-Burk plot analysis.

Compound in series [6]: CCN(CC)Cc1ccccc1CNC(=O)c1cc(C)cc(NC(=O)c2ccc(F)cc2)c1
Briefly: Non competitive inhibition of human BChE assessed as Vmax at 0.1 nM using BTC as substrate by Lineweaver-Burk plot analysis.

Compound in series [7]: CCN(CC)Cc1ccccc1CNC(=O)c1cc(C)cc(NC(=O)c2ccc(F)cc2)c1
The experiment in a line: Non competitive inhibition of human BChE assessed as Km at 0.1 nM using BTC as substrate by Lineweaver-Burk plot analysis.

Compound in series [8]: CCN(CC)Cc1ccccc1CNC(=O)c1cccc(NC(=O)c2ccc(F)cc2)c1
Briefly: Mixed type inhibition of human BChE assessed as Km at 0.4 nM using BTC as substrate by Lineweaver-Burk plot analysis.

Compound in series [9]: CCN(CC)Cc1ccccc1CNC(=O)c1cccc(NC(=O)c2ccc(F)cc2)c1
The experiment in a line: Mixed type inhibition of human BChE assessed as Vmax at 0.4 nM using BTC as substrate by Lineweaver-Burk plot analysis.

Compound in series [10]: CCN(CC)Cc1ccccc1CNC(=O)c1cc(C)cc(NC(=O)c2ccc(F)cc2)c1
The experiment in a line: Non competitive inhibition of human BChE assessed as Vmax at 0.15 nM using BTC as substrate by Lineweaver-Burk plot analysis.

Compound in series [11]: CCN(CC)Cc1ccccc1CNC(=O)c1cc(C)cc(NC(=O)c2ccc(F)cc2)c1
Briefly: Non competitive inhibition of human BChE assessed as Vmax at 0.02 nM using BTC as substrate by Lineweaver-Burk plot analysis.

Compound in series [12]: CCN(CC)Cc1ccccc1CNC(=O)c1cccc(NC(=O)c2ccc(F)cc2)c1
The experiment in a line: Mixed type inhibition of human BChE assessed as Vmax at 0.8 nM using BTC as substrate by Lineweaver-Burk plot analysis.

Compound in series [13]: CCN(CC)Cc1ccccc1CNC(=O)c1cccc(NC(=O)c2ccc(F)cc2)c1
The experiment in a line: Mixed type inhibition of human BChE assessed as Km at 0.2 nM using BTC as substrate by Lineweaver-Burk plot analysis.

Compound in series [14]: CCN(CC)Cc1ccccc1CNC(=O)c1cccc(NC(=O)c2ccc(F)cc2)c1
The experiment in a line: Mixed type inhibition of human BChE assessed as Km at 1.5 nM using BTC as substrate by Lineweaver-Burk plot analysis.

Compound in series [15]: CCN(CC)Cc1ccccc1CNC(=O)c1cccc(NC(=O)c2ccc(F)cc2)c1
The experiment in a line: Mixed type inhibition of human BChE assessed as Km at 0.8 nM using BTC as substrate by Lineweaver-Burk plot analysis.

Compound in series [16]: CCN(CC)Cc1ccccc1CNC(=O)c1cccc(NC(=O)c2ccc(F)cc2)c1
The experiment in a line: Mixed type inhibition of human BChE assessed as Vmax at 1.5 nM using BTC as substrate by Lineweaver-Burk plot analysis.

Compound in series [17]: CCN(CC)Cc1ccccc1CNC(=O)c1cccc(NC(=O)c2ccc(F)cc2)c1
The experiment in a line: Mixed type inhibition of human BChE assessed as Vmax at 0.2 nM using BTC as substrate by Lineweaver-Burk plot analysis.

Compound in series [18]: CCN(CC)Cc1ccccc1CNC(=O)c1cccc(NC(=O)c2ccc(F)cc2)c1
The experiment in a line: Mixed type inhibition of human BChE assessed as Vmax at 1 nM using BTC as substrate by Lineweaver-Burk plot analysis.

B1: Cholinesterase (Homo sapiens), P06276 (protein)
chain: MHSKVTIICIRFLFWFLLLCMLIGKSHTEDDIIIATKNGKVRGMNLTVFGGTVTAFLGIPYAQPPLGRLRFKKPQSLTKWSDIWNATKYANSCCQNIDQSFPGFHGSEMWNPNTDLSEDCLYLNVWIPAPKPKNATVLIWIYGGGFQTGTSSLHVYDGKFLARVERVIVVSMNYRVGALGFLALPGNPEAPGNMGLFDQQLALQWVQKNIAAFGGNPKSVTLFGESAGAASVSLHLLSPGSHSLFTRAILQSGSFNAPWAVTSLYEARNRTLNLAKLTGCSRENETEIIKCLRNKDPQEILLNEAFVVPYGTPLSVNFGPTVDGDFLTDMPDILLELGQFKKTQILVGVNKDEGTAFLVYGAPGFSKDNNSIITRKEFQEGLKIFFPGVSEFGKESILFHYTDWVDDQRPENYREALGDVVGDYNFICPALEFTKKFSEWGNNAFFYYFEHRSSKLPWPEWMGVMHGYEIEFVFGLPLERRDNYTKAEEILSRSIVKRWANFAKYGNPNETQNNSTSWPVFKSTEQKYLTLNTESTRIMTKLRAQQCRFWTSFFPKVLEMTGNIDEAEWEWKAGFHRWNNYMMDWKNQFNDYTSKKESCVGL
Regarding B1, the Km in [1] came out at 205 s⁻¹; in [2], 201 s⁻¹; in series [4] it was 201 s⁻¹; in series [5] it was 684 s⁻¹; in [7] it was 204 s⁻¹; in series [8], 558 s⁻¹. For the same protein, the values for the Km in series [13], in series [14] and in [15] were 511 s⁻¹, 707 s⁻¹ and 621 s⁻¹, respectively. Also, the Vmax in series [3] turned out to be 0.19 s⁻¹; in series [6], 0.24 s⁻¹; in series [9] it was 0.86 s⁻¹; in [10] it was 0.15 s⁻¹; in series [11], 0.38 s⁻¹; in [12], 0.63 s⁻¹. Also, the Vmax in [16] is 0.48 s⁻¹; in [17] it was 0.7 s⁻¹; in series [18], 0.61 s⁻¹.

Values taken from ChEMBL document CHEMBL5137095, “N-Benzyl Benzamide Derivatives as Selective Sub-Nanomolar Butyrylcholinesterase Inhibitors for Possible Treatment in Advanced Alzheimer's Disease” (J Med Chem, 2022).
